Assay results: US20250215089A1 (HARBOUR BIOMED SHANGHAI, published 2025)
Values joined by “and” are separate entries in the source; they are usually repeats but may differ in a detail not shown here. Identical values can stand only once.

B1: Selicrelumab (antibody, human IgG2, kappa, V domains shown)
VH: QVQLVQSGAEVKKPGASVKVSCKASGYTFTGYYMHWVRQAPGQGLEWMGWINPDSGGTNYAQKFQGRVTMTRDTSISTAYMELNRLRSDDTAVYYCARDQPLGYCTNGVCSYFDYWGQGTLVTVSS
VL: DIQMTQSPSSVSASVGDRVTITCRASQGIYSWLAWYQQKPGKAPNLLIYTASTLQSGVPSRFSGSGSGTDFTLTISSLQPEDFATYYCQQANIFPLTFGGGTKVEIKR
notes: Positive control anti-CD40 antibody; also called PR001028
B2: PR006246 (antibody, human IgG1, V domains shown)
VH: QVQLVESGGGVVQPGMSLRLSCAASGFDFSSYGMYWVRQAPGKGQEWVASIRYTGTEKHYADSVKGRFTISRDNSKNTLYLEMNSLRVEDTAVYYCAKNRAIFGVIPDDSDIRGQGTMVTVSS
notes: HCAb; human IgG1 Fc; no light chain
B3: PR006247 (antibody, human IgG1, V domains shown)
VH: QVQLVESGGGVVQPGMSLRLSCAASGFDFSSYGMYWVRQAPGKGQEWVASIRYTGTEKHYADSVKGRFTISRDNSKNTLYLEMNSLRVEDTAVYYCAKNRALFGVIPDASDIRGQGTMVTVSS
notes: as for B2
B4: PR006248 (antibody, human IgG1, V domains shown)
VH: QVQLVESGGGVVQPGMSLRLSCAASGFDFSSYGMYWVRQAPGKGQEWVASIRYTGTEKHYADSVKGRFTISRDNSKNTLYLEMNSLRVEDTAVYYCAKNRALFGVIPDDSDIRGQGTMVTVSS
notes: as for B2
B5: PR003379 (antibody, human IgG2, kappa, V domains shown)
VH: QVQLVQSGAEVKKPGASVKVSCKASGYTFAGYYMYWVRQAPGQGLEWMGWINPDSGAPTYAQKFQGRVTMTRDTSISTAYMELSRLRSDDTAVYYCAREKIYYGSGNYYPSFDYWGQGTLVTVSS
VL: DIQLTQSPSFLSASVGDRVTITCRASQGISSYLAWYQQKPGKAPKLLIYAASTLQSGVPSRFSGSGSGTEFTLTISSLQPEDFATYYCQQLNSYPWTFGQGTKVEIKR
notes: also called clone 18C4A12-1B1

Key:
human CD40 [1] = molecular target: T1, human CD40 (human, UniProt P25942 21-277); test: FACS, Raji cells
T1 construct: whole, on cells; also called hCD40; TNFRSF5
Experimental: The cells were incubated at 4° C. for 1 hours in the dark. After the incubation, the cells were rinsed twice by adding pre-chilled PBS at 100 μL/well, and centrifuged at 500 g at 4° C. for 5 minutes, and the supernatant was discarded. Then, a fluorescent secondary antibody (goat anti-human IgG (H+L) secondary antibody, Alexa Fluor® 488 conjugate, Invitrogen, #A11013, 1:1000 dilution) was added at 100 μL/well, and the cells were incubated at 4° C. for 30 minutes in the dark. The cells were washed twice with pre-chilled PBS at 200 μL/well, and centrifuged at 500 g at 4° C. for 5 minutes, and the supernatant was discarded. Finally, the cells were resuspended in pre-chilled PBS at 200 μL/well. The fluorescence signal values were read using a BD FACS CANTOII flow cytometer or ACEA NovoCyte flow cytometer, and the data were processed and analyzed using FlowJo v10 software (FlowJo, LLC).
(§1) Data processing and graphical analysis were performed using GraphPad Prism 8 software. The binding curve of the antibody to the target cell and parameters, such as EC₅₀ value were obtained by four-parameter nonlinear fitting.

human CD40 [2] = molecular target: T1, human CD40; test: FACS, Raji cells; remark: listed apart in the source
Summary of the method: (§2)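 Cells carrying bound test antibody were kept 1 h at 4° C in the dark, washed in cold PBS, then stained 30 min at 4° C with Alexa Fluor 488 goat anti-human IgG (H+L) (1:1000). Fluorescence signal was read by flow cytometry.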

human CD40 [3] = molecular target: T1, human CD40; test: cell-based or functional assay
human CD40 [4] = molecular target: T1, human CD40; test: FACS, MDA-MB-231 cells
human CD40 [5] = molecular target: T1, human CD40; test: cell-based or functional assay; remark: listed apart in the source
human CD40 [6] = molecular target: T1, human CD40; test: FACS, CHO-K1/hCD40 cells
Summary of the method: as §2

cynomolgus monkey CD40 = molecular target: T2, cynomolgus monkey CD40 (cynomolgus monkey); test: FACS, CHO-K1/cyCD40 cells
T2 construct: whole, on cells; also called cyCD40
Summary of the method: as §2

cynomolgus monkey PD-L1 = molecular target: T3, cynomolgus monkey PD-L1 (cynomolgus monkey); test: FACS, CHO-K1/cyPD-L1 cells
T3 construct: whole, on cells; also called cyPD-L1
Summary of the method: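 Binding of antibodies to PD-L1-expressing cells (1×10⁶ cells/mL in PBS/2% BSA), tested in 4-fold dilution series. Incubation 2 h at 4° C in the dark, then washes. Fluorescence read by flow cytometry.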

human PD-L1 [7] = molecular target: T4, human PD-L1 (human, UniProt Q9NZQ7 19-290); test: cell-based or functional assay
human PD-L1 [8] = molecular target: T4, human PD-L1; test: FACS, CHO-K1/hPD-L1 cells
Experimental: Specifically, the cells expressing PD-L1 were digested and resuspended in PBS buffer containing 2% BSA. The cells were adjusted to a cell density of 1×10⁶ cells/mL, respectively. The cells were seeded in a 96-well V-bottom plate (Corning, #3894) at 100 μL/well, and the antibody to be tested at 2×final concentration with 4-fold concentration gradient dilution was then added at 100 μL/well. The cells were incubated at 4° C. for 2 hours in the dark. After the incubation, the cells were rinsed twice by adding pre-chilled PBS containing 2% BSA at 100 μL/well, and centrifuged at 500 g at 4° C. for 5 minutes, and the supernatant was discarded. […] The cells were washed twice by adding pre-chilled PBS containing 2% BSA at 100 µL/well, and centrifuged at 500 g at 4° C. for 5 minutes, and the supernatant was discarded. Finally, the cells were resuspended in pre-chilled PBS buffer containing 2% BSA at 200 μL/well. The fluorescence signal values were read using a BD FACS CANTOII flow cytometer or ACEA NovoCyte flow cytometer, and the data were processed and analyzed using FlowJo v10 software (FlowJo, LLC).
as §1

T1 sequence (P25942 21-277): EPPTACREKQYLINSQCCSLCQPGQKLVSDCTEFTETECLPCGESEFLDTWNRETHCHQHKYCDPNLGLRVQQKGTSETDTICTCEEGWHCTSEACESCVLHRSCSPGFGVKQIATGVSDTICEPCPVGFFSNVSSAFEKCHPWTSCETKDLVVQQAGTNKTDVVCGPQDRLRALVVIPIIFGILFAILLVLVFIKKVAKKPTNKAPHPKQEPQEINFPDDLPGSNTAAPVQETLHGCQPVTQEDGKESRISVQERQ
T4 sequence (Q9NZQ7 19-290): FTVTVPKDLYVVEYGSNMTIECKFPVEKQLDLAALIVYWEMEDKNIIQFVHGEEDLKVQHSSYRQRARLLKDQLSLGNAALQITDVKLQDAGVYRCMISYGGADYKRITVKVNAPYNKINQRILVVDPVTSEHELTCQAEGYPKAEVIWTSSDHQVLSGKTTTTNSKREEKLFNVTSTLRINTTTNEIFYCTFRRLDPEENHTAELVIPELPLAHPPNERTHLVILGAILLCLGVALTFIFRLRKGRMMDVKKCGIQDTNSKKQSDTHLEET

| Binder | EC50 (human CD40 [1]) [nM] | Maximum MFI (human CD40 [1]) [MFI] | EC50, HEK293-hCD40-NFκB reporter, crosslinked (CHO-K1/hCD32B) (human CD40 [3]) [nM] | EC50, HEK293-hCD40-NFκB reporter, uncrosslinked (CHO-K1) (human CD40 [3]) [nM] | Fold (EC50 in the absence of crosslinking/EC50 in the presence of crosslinking) (human CD40 [3]) [fold] | EC50, Jurkat-NFAT-hPD1 reporter (human PD-L1 [7]) [nM] | Maximum (RLU), Jurkat-NFAT-hPD1 reporter (human PD-L1 [7]) [RLU] | EC50 (human PD-L1 [8]) [nM] | Maximum MFI (human PD-L1 [8]) [MFI] | other results |
| --- | --- | --- | --- | --- | --- | --- | --- | --- | --- | --- |
| B1 | 0.484 | 2450 | 0.0413 | 0.163 | 3.94 |  |  |  |  | EC50 (human CD40 [2]): 3.02 nM; Maximum MFI (human CD40 [2]): 5170 MFI; EC50 (human CD40 [4]): 0.936 nM; EC50, HEK293-hCD40-NFκB reporter, + CHO-K1 (human CD40 [5]): 0.183 nM and 0.241 nM; EC50, HEK293-hCD40-NFκB reporter, + CHO-K1/hPD-L1 (human CD40 [5]): 0.155 nM and 0.205 nM; EC50 (human CD40 [6]): 2.58 nM; Maximum MFI (human CD40 [6]): 13900 MFI; EC50 (cynomolgus monkey CD40): 4.74 nM; Maximum MFI (cynomolgus monkey CD40): 53400 MFI; Maximum MFI (cynomolgus monkey PD-L1): 94 MFI |
| B2 |  |  |  |  |  | 0.132 | 13700 | 0.764 | 396000 |  |
| B3 |  |  |  |  |  | 0.15 | 13400 | 1.01 | 410000 |  |
| B4 |  |  |  |  |  | 0.121 | 14100 | 0.606 | 404000 |  |
| B5 | 0.0699 | 3700 | 0.178 | 0.369 | 2.07 |  |  |  |  |  |
